From FireProtDB (doi:10.1021/bi010565n) come the findings set out here.

The conditions of the data set: Aspergillus oryzae (strain ATCC 42149 / RIB 40), pH 7, Thermal, MOPS 30 mM, reversible: yes(0.94), whole UniProt chain shown.

B1: Guanyl-specific ribonuclease T1 wild type, P00651 (protein)
chain: MMYSKLLTLTTLLLPTALALPSLVERACDYTCGSNCYSSSDVSTAQAAGYQLHEDGETVGSNSYPHKYNNYEGFDFSVSSPYYEWPILSSGDVYSGGSPGADRVVFNENNQLAGVITHTGASGNNFVECT
Turning to B1, the Tm is, setting by setting: (CD) 51.2 °C; (DSC) 51.5 °C.

As usually defined, the Tm is the temperature at which the thermal transition is half complete.
